# According to patent US20230340140A1 (INNATE PHARMA, published 2023):
# B1: Avdoralimab (antibody, human IgG1, kappa, V domains shown)
# VH: EVQLVESGGGLVQPGGSLRLSCAASGFTFSSYVMHWVRQATGKGLEWVSAIDTGGGTYYADSVKGRFTISRENAKNSLYLQMNSLRAGDTAVYYCARDYYYYASGSYYKAFDIWGQGTMVTVSS
# VL: EIVLTQSPGTLSLSPGERATLSCRASQSVSSRYLAWYQQKPGQAPRLLIYGASSRATGIPDRFSGSGSGTDFTLTISRLEPEDFAVYYCQQYGSPLTFGQGTKLEIKR
# notes: also called IPH5401
# How the values were obtained:
# Human C5aR (C5aR1) [1] = biological target: T1, Human C5aR (C5aR1) (human, UniProt P21730 1-350); assay: cell-based or functional assay
# T1 sequence: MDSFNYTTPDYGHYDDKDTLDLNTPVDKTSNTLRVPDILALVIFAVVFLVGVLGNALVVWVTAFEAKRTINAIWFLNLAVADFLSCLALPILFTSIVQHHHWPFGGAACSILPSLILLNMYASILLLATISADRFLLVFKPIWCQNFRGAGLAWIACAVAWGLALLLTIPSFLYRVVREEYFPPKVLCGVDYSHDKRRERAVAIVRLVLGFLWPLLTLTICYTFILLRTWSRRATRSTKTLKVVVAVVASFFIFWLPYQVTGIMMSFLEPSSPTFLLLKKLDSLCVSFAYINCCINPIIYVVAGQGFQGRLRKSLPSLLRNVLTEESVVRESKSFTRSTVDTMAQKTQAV
# Human C5aR (C5aR1) [2] = biological target: T1, Human C5aR (C5aR1); assay: FACS titration on human neutrophils in vitro; FACS titration on human neutrophils in vitro, given in nM
# Human C5aR (C5aR1) [3] = biological target: T1, Human C5aR (C5aR1); assay: EC50 of C5aR saturation in the PD part of the PKPD model, derived from PK/receptor saturation data of the phase I trial; PD parameter of the PKPD model, from phase I PK/receptor saturation data; not in vitro
# From the text: A PKPD model was built in Phoenix 64 WinNonLin version 8.1.0.3530, to predict avdoralimab serum concentrations in blood post s.c. administration, as well as C5aR saturation. Pharmacokinetics of therapeutic mAbs are usually modelled using a two-compartment model (Deng et al. 2011 MAbs 3(1): 61-66). Based on the PK results described in Example 1, avdoralimab is expected to display PK properties similar to other therapeutic antibodies in humans, except for compound-specific target-mediated drug disposition (TMDD). This TMDD effect can be modelled by an additional non-linear elimination added to the model (Wang et al. 2016 Biopharm. Drug Dispos. 37: 51-65). […] Absorption rate (Ka) and bioavailability (Ba) for s.c. administration were estimated based on PK results for Example 1. EC₅₀ in the PD part of PKPD model is derived from PK/RSA data observed in phase I clinical trial, and is similar to EC₅₀ binding to human neutrophils in vitro=0.34 nM=51 ng/mL in FACS titration assays.
binder,measurement,setting,value
B1,"EC50 for inhibition of C5a-induced CD11b expression on neutrophils in human whole blood (flow cytometry, MedFI, normalized)",Human C5aR (C5aR1) [1],0.34 µg/mL
same,EC50,Human C5aR (C5aR1) [2],340 pM
same,EC50,Human C5aR (C5aR1) [3],0.05 µg/mL
